Measurements reported in article PMC7083832, “Structural analysis of TIFA: Insight into TIFA-dependent signal transduction in innate immunity” (Scientific Reports, 2020).
“And” between values parts separate entries of the source, which are not always exact repeats. Equal entries are not always repeated.

B1: mouse TRAF6-C containing a part of coiled-coil domain (amino acid residues from 326 to 516) (domain or fragment, UniProt P70196 326-516, looked up)
chain: AKMETQSMYVGELKRTIRTLEDKVAEMEAQQCNGIYIWKIGNFGMHLKSQEEERPVVIHSPGFYTGRPGYKLCMRLHLQLPTAQRCANYISLFVHTMQGEYDSHLPWPFQGTIRLTILDQSEALIRQNHEEVMDAKPELLAFQRPTIPRNPKGFGYVTFMHLEALRQGTFIKDDTLLVRCEVSTRFDMGGL
notes: TRAF6, mouse, residues 326-516: part of the coiled-coil domain and the C-terminal TRAF (TRAF-C) domain; also called TRAF-C domain of TRAF6; not shown: His tag, C-terminal, kept

How the values were obtained:
[1] = molecular target: the molecule itself; assay: crystal structure; hanging-drop vapour diffusion, reservoir 0.1 M MES pH 6.4, 5% (v/v) MPD (native TIFA; T9E/C36S under a similar condition); data at 100 K
[2] = molecular target: B1; assay: SEC; TIFAs and TRAF6-C mixed at a molar ratio of 1:1 (monomer:monomer); Superdex 200; 20 mM Tris pH 8.0, 500 mM NaCl, 2 mM EDTA, 1 mM β-mercaptoethanol; details: both partners purified
[3] = molecular target: the molecule itself; assay: SEC; each protein alone; Superdex 200; 20 mM Tris pH 8.0, 500 mM NaCl, 2 mM EDTA, 1 mM β-mercaptoethanol
[4] = molecular target: the molecule itself; assay: crystal structure; reservoir 0.1 M sodium citrate pH 5.3, 40% (v/v) PEG400 (T9D/C36S); data at 100 K

Row | Binder | stoichiometry N [1] | binding result [2] | binding result [3] | stoichiometry N [4] | stoichiometry N [3]
1 | full-length mouse TIFA (TRAF-interacting protein with a forkhead-associated (FHA) domain) (natural protein, UniProt Q793I8 1-184, looked up, TIFA, mouse, full length, 184 amino acids, GenBank BAB86903.1; A SeMet form (E. coli B834(DE3)) was used only for phasing; also called wildtype TIFA; native TIFA; not shown: His tag, C-terminal, kept) MSTFEDADTEETVTCLQMTIYHPGQQSGIFKSIRFCSKEKFPSIEVVKFGRNSNMCQYTFQDKQVSRIQFVLQPFKQFNSSVLSFEIKNMSKKTSLMVDNQELGYLNKMDLPYKCMLRFGEYQFLLQKEDGESVESFETQFIMSSRPLLQENNWPTQNPIPEDGMYSSYFTHRSSPSEMDENEL | 2 | binds |  |  | 
2 | mouse TIFA E39R/E45R/E138R mutant (natural protein, UniProt Q793I8 1-184, looked up, TIFA, mouse, full length, 184 amino acids, GenBank BAB86903.1, with E39R, E45R and E138R; source: E. coli BL21(DE3), pET-30b(+), purified by nearly the same procedure as for native TIFA) MSTFEDADTEETVTCLQMTIYHPGQQSGIFKSIRFCSKRKFPSIRVVKFGRNSNMCQYTFQDKQVSRIQFVLQPFKQFNSSVLSFEIKNMSKKTSLMVDNQELGYLNKMDLPYKCMLRFGEYQFLLQKEDGESVESFRTQFIMSSRPLLQENNWPTQNPIPEDGMYSSYFTHRSSPSEMDENEL |  | binds | binds |  | 
3 | mouse TIFA E39R/E138R mutant (natural protein, UniProt Q793I8 1-184, looked up, TIFA, mouse, full length, 184 amino acids, GenBank BAB86903.1, with E39R and E138R; source: E. coli BL21(DE3), pET-30b(+), purified by nearly the same procedure as for native TIFA) MSTFEDADTEETVTCLQMTIYHPGQQSGIFKSIRFCSKRKFPSIEVVKFGRNSNMCQYTFQDKQVSRIQFVLQPFKQFNSSVLSFEIKNMSKKTSLMVDNQELGYLNKMDLPYKCMLRFGEYQFLLQKEDGESVESFRTQFIMSSRPLLQENNWPTQNPIPEDGMYSSYFTHRSSPSEMDENEL |  | binds | binds |  | 
4 | mouse TIFA T9D/C36S mutant (natural protein, UniProt Q793I8 1-184, looked up, TIFA, mouse, full length, 184 amino acids, GenBank BAB86903.1, with T9D (phosphomimetic) and C36S; Dimers assemble into a hexamer in the crystal; source: E. coli BL21(DE3), pET-30b(+), purified by nearly the same procedure as for native TIFA) MSTFEDADDEETVTCLQMTIYHPGQQSGIFKSIRFSSKEKFPSIEVVKFGRNSNMCQYTFQDKQVSRIQFVLQPFKQFNSSVLSFEIKNMSKKTSLMVDNQELGYLNKMDLPYKCMLRFGEYQFLLQKEDGESVESFETQFIMSSRPLLQENNWPTQNPIPEDGMYSSYFTHRSSPSEMDENEL |  | binds |  | 2 and 6 | 
5 | mouse TIFA T9E/C36S mutant (natural protein, UniProt Q793I8 1-184, looked up, TIFA, mouse, full length, 184 amino acids, GenBank BAB86903.1, with T9E (phosphomimetic) and C36S; source: E. coli BL21(DE3), pET-30b(+), purified by nearly the same procedure as for native TIFA) MSTFEDADEEETVTCLQMTIYHPGQQSGIFKSIRFSSKEKFPSIEVVKFGRNSNMCQYTFQDKQVSRIQFVLQPFKQFNSSVLSFEIKNMSKKTSLMVDNQELGYLNKMDLPYKCMLRFGEYQFLLQKEDGESVESFETQFIMSSRPLLQENNWPTQNPIPEDGMYSSYFTHRSSPSEMDENEL | 2 | binds |  |  | 
6 | B1 |  |  |  |  | 3
